# Assay results from paper PMC10693918.
# Biological target: TniQ transposition protein of the type I-F3b CAST element Tn6900, His6-tagged
# Assay: cryo-EM structure
substance,measurement,value
"TniQ transposition protein of the type I-F3b CAST element Tn6900, His6-tagged (natural protein)",stoichiometry N,2
